Laboratory results published in publication doi:10.1101/2025.06.12.659315, “Structural Basis for Cas9-Directed Spacer Acquisition in Type II-A CRISPR-Cas Systems” (bioRxiv, 2025).

B1: Enterococcus faecalis Cas2 (natural protein, UniProt A0A3N3FLR9 1-109, looked up)
chain: MSYRYMRLLLMFDMPTDTASDRKAYRKFRKFLINEGFIMHQFSVYSKILLNDTANKAMLARLKQNNPQRGLITLLNVTEKQFSRMIYLHGEQDNRVANSDERIVFLGEE
notes: Cas2 of the Enterococcus faecalis type II-A CRISPR-Cas system, full-length gene amplified from E. faecalis genomic DNA; Cas2 was purified together with Cas1 (Cas1:Cas2 mixed 2:1) before use; also called EfaCas2; Cas2 dimer; source: E. coli BL21 Star (DE3), purified (Ni-NTA, SUMO protease cleavage, Superdex 200 SEC with Cas1)
B2: Enterococcus faecalis Csn2 (natural protein, UniProt C7UDU4 1-219, looked up)
chain: MRVNFSLLEEPIEIEKATFLTIKDVQSFAHLVKLIYQYDGENELKLFDAQQKGLKPTELFVVTDILGYDVNSAATLKLIYGDLEAQLNDKPEVKSMIEKLTGTISQLIGYELLEHEMDLEEDGIIVQELFKALGIKIETTSDTIFEKVMEITQVHRYLSKKKLLIFINACTYLTEDEVQQVVEYISLNNVDVLFLEQRVVQNRFQYILDENFYLSYEKA
notes: Csn2 of the Enterococcus faecalis type II-A CRISPR-Cas system, full-length gene amplified from E. faecalis genomic DNA; Homotetramer ring with a central channel for dsDNA; also called EfaCsn2; Csn2 tetramer; source: E. coli BL21 Star (DE3), purified (Ni-NTA, TEV cleavage, Superdex 200 SEC); not shown: His6, N-terminal, cleaved; MBP, N-terminal, cleaved
B3: Enterococcus faecalis Cas1 (enzyme, UniProt A0A3N3GDE4 1-288, looked up)
chain: MGWRTVVVNKHSKLSYKNNHLVFKAIDHQELIHLSEIDVLLLETTDISLTTMLLKRLIDEKILVLFCDDKRLPIGKILPFYGRHDSSLQLTRQLAWTEERKGQVWTAIIAQKITNQSLHLAQRDYGQKAAALLAMRAELRLFDPANREGHAARSYFNTLFGNDFTREQENDINAGLNYGYTLLLSIFARELVQTGCFTQLGLKHANQFNDFNLASDLMEPFRPLVDQIIYENRKEAFPIMKRKLFALFMNTYMYKKKQMFLTNIATDYTKHVVKVLNQEEEGVPEFGI
notes: Cas1 of the Enterococcus faecalis type II-A CRISPR-Cas system, full-length gene amplified from E. faecalis genomic DNA; Cas1 was purified together with Cas2 (mixed 2:1) before use; also called EfaCas1; Cas1 dimer; source: E. coli BL21 Star (DE3), purified (Ni-NTA, SUMO protease cleavage, Superdex 200 SEC with Cas2)

Columns and labels:
[1] = target: the molecule itself; assay: cryo-EM structure; apo-state Cas9/RNA-Csn2-Cas1-Cas2 supercomplex, assembled from purified proteins and purified by SEC in 20 mM HEPES pH 7.5, 250 mM NaCl; 3.9 Å
[2] = target: the molecule itself; assay: cryo-EM structure; preassembled Cas9/RNA-Csn2-Cas1-Cas2 supercomplex incubated with a 59-bp PAM-containing dsDNA at 4 °C for 30 min; Cas9-containing prespacer catching complex, State I 2.96 Å and State II 3.01 Å
[3] = target: T1, Enterococcus faecalis Cas1-Cas2 integrase complex (Cas1_(4)-Cas2_(2) hexamer) (Enterococcus faecalis, UniProt A0A3N3GDE4 1-288; A0A3N3FLR9 1-109); assay: SEC; analytical SEC, Superdex 200 Increase 10/300 GL, 20 mM HEPES pH 7.5, 250 mM NaCl; Cas9/RNA, Csn2 and Cas1-Cas2 mixed; fractions analysed by SDS-PAGE (Coomassie); conditions: both partners purified
T1 construct: Cas1 of the Enterococcus faecalis type II-A CRISPR-Cas system, full length; as the chain of m3; Cas2 of the Enterococcus faecalis type II-A CRISPR-Cas system, full length; as the chain of m4; Complex formed beforehand; used as one partner in the gel filtration and DNA cleavage assays; also called Cas1-Cas2 hexamer; Cas1-Cas2 complex; source: E. coli BL21 Star (DE3); tag-cleaved Cas1 and Cas2 …
T1 sequence (looked up) 1: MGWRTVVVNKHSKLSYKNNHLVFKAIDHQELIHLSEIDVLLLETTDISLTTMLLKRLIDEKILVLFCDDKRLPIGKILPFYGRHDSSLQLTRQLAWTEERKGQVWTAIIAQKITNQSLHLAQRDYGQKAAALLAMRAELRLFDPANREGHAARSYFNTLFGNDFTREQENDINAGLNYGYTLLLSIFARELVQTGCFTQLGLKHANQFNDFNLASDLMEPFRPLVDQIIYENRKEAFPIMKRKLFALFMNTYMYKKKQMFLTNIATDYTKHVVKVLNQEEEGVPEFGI
T1 sequence (looked up) 2: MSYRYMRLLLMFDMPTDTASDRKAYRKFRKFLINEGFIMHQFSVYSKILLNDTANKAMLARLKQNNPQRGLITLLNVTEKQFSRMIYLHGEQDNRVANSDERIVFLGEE

Binder	stoichiometry N [1]	stoichiometry N [2]	binding result [3]
B1	2		
B2		4	binds
B3		2	
